Laboratory results reported in paper PMC4269474 (Cell reports, 2014).

Biological target: the molecule itself
Assay: negative-stain EM single particle reconstruction

B1: Pyrococcus furiosus Cmr4 (natural protein)
chain: KAYLVGLYTLTPTHPGSGTELGVVDQPIQRERHTGFPVIWGQSLKGVLRSYLKLVEKVDEEKINKIFGPPTEKAHEQAGLISVGDAKILFFPVRSLKGVYAYVTSPLVLNRFKRDLELAGVKNFQTEIPELTDTAIASEEITVDNKVILEEFAILIQKDDKGILESVVKAIEQAFGNEMAEKIKGRIAIIPDDVFRDLVELSTEIVARIRINAETGTVETGGLWYEEYIPSDTLFYSLILVTPRAKDNDMALIKEVLGKINGKYLQIGGNETVGKGFVKVTLKEVTNNGGTHAK
  stoichiometry N: 4
